One assay concerns gum arabic. As to the kind of experiment: VHH binding to gum arabic in ELISA. On the set-up: species or system acacia tree. On the procedure: Titration of VHH antibody fragments was performed on ELISA plates (Maxisorp, Nunc) coated with 100 μl per well 100 μg/ml gum arabic in 50 mM carbonate pH9.6. Plates were coated at 4° C. overnight and coating was continued at room temperature for 1 hour on the next day. Plates were washed three times with PBS/0.05%-TWEEN®-20 and blocked with 5% skimmed milk in PBS for 1 hour. Four-fold serial dilutions of purified VHH antibody fragments were prepared in 1% MPBS/0.05%-TWEEN®-20 in polypropylene 96-well plates. Antibody concentrations ranged from 3 μg/ml to 12 ng/ml. Antibody dilutions were transferred to the gum arabic-coated plates and VHH antibody fragments were allowed to bind for 1 hour at room temperature. Bound VHH were detected with sequential incubations with monoclonal mouse anti-histidine antibodies (Abd Serotec) and rabbit anti-mouse IgG whole molecule antibodies conjugated with alkaline phosphatase (RaM/AP) (Sigma) in 1% MPBS/0.05%-TWEEN®-20. Unbound antibodies were removed by washing three times with PBS/0.05%-TWEEN®-20 after each antibody incubation. The plates were washed an additional two times with PBS and 100 μl pNPP disodium hexahydrate substrate (Sigma) was added to each well. The absorbance at 405 nm was measured and plotted as function of antibody concentration (see Table 1).
On the technique in general: In an ELISA, binding on a coated surface is turned into a signal by an enzyme label.

The next assay concerns the target T1, potato lectin (Sigma) (potato, UniProt Q9S8M0 23-323).
T1 construct: Bought glycoprotein, coated on ELISA plates
T1 sequence (looked up): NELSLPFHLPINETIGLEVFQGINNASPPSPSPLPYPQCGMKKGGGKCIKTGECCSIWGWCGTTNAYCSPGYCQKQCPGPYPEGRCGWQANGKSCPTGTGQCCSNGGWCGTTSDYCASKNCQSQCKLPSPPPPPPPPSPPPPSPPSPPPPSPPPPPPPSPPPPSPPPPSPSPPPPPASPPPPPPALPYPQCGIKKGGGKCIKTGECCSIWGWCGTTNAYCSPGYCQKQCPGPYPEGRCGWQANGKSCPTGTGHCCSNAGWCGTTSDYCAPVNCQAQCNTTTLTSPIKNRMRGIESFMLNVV
In words: ELISA, potato lectin coated at 100 ug/ml, VHH at 3 ug/ml, anti-histidine detection. On the procedure:
(§1) ELISA plates (Maxisorp, Nunc) coated with 100 μl per well 100 μg/ml potato lectin (Sigma) in PBS were coated at 4° C. overnight and coating was continued at room temperature for 1 hour on the next day. Plates were washed three times with PBS/0.05%-TWEEN®-20 and blocked with 5% skimmed milk in PBS for 1 hour. VHH (3 μg/ml) were transferred to the potato lectin-coated plates and VHH antibody fragments were allowed to bind for 1 hour at room temperature. Bound VHH were detected with sequential incubations with monoclonal mouse anti-histidine antibodies (Abd Serotec) and rabbit anti-mouse IgG whole molecule antibodies conjugated with alkaline phosphatase (RaM/AP) (Sigma) in 1% MPBS/0.05%-TWEEN®-20. Unbound antibodies were removed by washing three times with PBS/0.05%-TWEEN®-20 after each antibody incubation. The plates were washed an additional two times with PBS and 100 μl pNPP disodium hexahydrate substrate (Sigma) was added to each well and the absorbance at 405 nm was measured (see Table 2).

In another assay the target is T2, potato lectin (Solanum tuberosum, UniProt Q9S8M0).
T2 sequence (Q9S8M0 23-323): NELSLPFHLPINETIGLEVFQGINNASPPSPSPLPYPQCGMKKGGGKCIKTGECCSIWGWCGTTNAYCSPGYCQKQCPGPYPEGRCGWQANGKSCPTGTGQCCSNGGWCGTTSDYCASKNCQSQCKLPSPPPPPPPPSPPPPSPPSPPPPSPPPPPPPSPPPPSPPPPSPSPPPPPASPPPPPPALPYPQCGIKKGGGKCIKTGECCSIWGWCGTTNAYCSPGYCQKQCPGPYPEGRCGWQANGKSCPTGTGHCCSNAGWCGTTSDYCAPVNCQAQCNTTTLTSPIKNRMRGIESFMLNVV
In words: VHH binding to potato lectin in ELISA. The conditions noted are these: blank wells; VHH 3 μg/ml. On the procedure: as §1

A further assay concerns potato leaf surface. As to the kind of experiment: VHH binding to leaf discs (microscopy). Further details: species or system potato (variety Désirée). The following applies: 5 μg/ml in PBS, anti-histidine Alexa-488 detection. Here is the method: VHH binding to non-fixed leaf discs of potato (variety Désirée), black nightshade, grass, wheat or azalea was investigated. For comparison, binding of CBM3a to non-fixed leaf discs of potato (variety Désirée) was analyzed in parallel. Leaf discs were prepared by punching a fresh potato leaf with a 5 mm belt hole puncher tool. Leaf discs were put immediately in wells of a 96-well plate containing 200 μl per well 5% MPBS or PBS, and incubated for 30 minutes. Leaf discs were transferred to solutions containing 5 μg/ml VHH antibody fragment, respectively 5 μg/ml CBM3a in 2% MPBS or PBS and incubated for 60-90 minutes. Unbound VHH or CBM3a proteins were removed by washing three times with 2% MPBS or PBS. Bound VHH or CBM3a proteins were detected with incubation with monoclonal mouse anti-histidine antibodies directly conjugated with Alexa-488 fluorescent dye (Abd Serotec) in 1% MPBS for 1 hour. Unbound antibodies were removed by washing three times with PBS. Leaf discs were put on glass slides, covered with cover slips, and analyzed by microscopy or on a macrozoom microscope system (Nikon) or a SP5 confocal microscope system (Leica).

[1] abbreviates: [VHH] 0.0117188 μg/ml (0.78125 nM), gum arabic 100 μg/ml.
Setting [2] is: [VHH] 0.04688 μg/ml (3.125 nM), gum arabic 100 μg/ml.
[3] abbreviates: [VHH] 0.1875 μg/ml (12.5 nM), gum arabic 100 μg/ml.
The mark [4] stands for this setting: [VHH] 0.75 μg/ml (50 nM), gum arabic 100 μg/ml.
The mark [5] stands for this setting: [VHH] 3 μg/ml (200 nM), gum arabic 100 μg/ml.
Where [6] appears, read: [VHH] 3 μg/ml (200 nM), no gum arabic coat (−).
[7] abbreviates: Table 2, gum arabic coat, VHH 3 μg/ml.

B1: VHH5E5: plant-binding VHH, listed among SEQ ID NO:1-42 (protein, listed as Lama glama)
VHH: QVQLQESGGGLVQPGGSLTLSCTASGFAMRRFGIGWFRQVVGKEREGVSCSNVHDGSTYYANYVKGRFTIVRDDTKNMLYLHMNSLRAEDTGVYSCATTDCEATAWGTYRGYFGQGTQVTVSS
modifications: 5E5
Turning to B1, the “absorbance at 405 nm” value in the assay on gum arabic (setting [1]) is on record as 0.074; in the assay on gum arabic (setting [2]), 0.088; in the assay on gum arabic (setting [3]) it was 0.185; in the assay on gum arabic (setting [4]), 0.569; with gum arabic (setting [5]) it was 1.194; in the assay with gum arabic (setting [6]), 0.073.

B2: VHH7C2: plant-binding VHH, listed among SEQ ID NO:1-42 (protein, listed as Lama glama)
VHH: QVQLQESGGGLVQPGGSLRLSCAAFGFALANYGIGWFRQAPGKDRERVSCDSVDDGSTHYSNSVQGRFTIIRDNAKNTVFLQMNSLKAEDTAVYYCATTDCDATTWGTWINYRGQGTQVTVSS
modifications: 7C2
In the case of B2, the “absorbance at 405 nm” value with gum arabic (setting [1]) was determined as 0.088; in the assay with gum arabic (setting [2]) it was 0.092; in the assay with gum arabic (setting [3]) it was 0.090; with gum arabic (setting [4]), 0.194; in the assay with gum arabic (setting [5]), 0.461; in the assay on gum arabic (setting [6]), 0.077.

B3: VHH 5C4 (VHH)
VHH: QVQLQESGGGLVQPGGSLRLSCAASGFSLRYFGIGWFRQVAGKEREPVSCSNVRDGNTYYADSVKGRFTISRDNVRNTLYLQMNSLKPEDTAVYSCATTDCEATTWGTYRGYFGQGTQVTVSS
notes: Hexahistidine-tagged
For the molecule B3, the “absorbance at 405 nm” value with potato lectin (Sigma) was found to be 4; with potato lectin, 0.071; with gum arabic (setting [7]) it was 0.873; in the assay with gum arabic (setting [1]), 0.166; with gum arabic (setting [2]), 0.386; in the assay on gum arabic (setting [3]), 1.036. Also, the “absorbance at 405 nm” value was 1.710 in the assay on gum arabic (setting [4]), 2.010 in the assay on gum arabic (setting [5]) and 0.082 in the assay on gum arabic (setting [6]).

B4: VHH 5G5 (VHH)
VHH: QVQLQESGGGLVQPGGSLRLSCAASGFSLRYFGIGWFRQAAGKEREGISCSNVRDGNTYYADSVKGRFTISRDNVRNMLYLQMNNLKPDDTAVYSCATTDCEATTWGTYRGYFGQGTQVTVSS
notes: Hexahistidine-tagged
In the case of B4, the “absorbance at 405 nm” value with potato lectin (Sigma) is 4; in the assay with potato lectin it was 0.073; with gum arabic (setting [7]), 0.751; in the assay with gum arabic (setting [1]) it was 0.125; with gum arabic (setting [2]), 0.317; in the assay with gum arabic (setting [3]), 0.906. Besides, the “absorbance at 405 nm” value was determined as 1.611 in the assay with gum arabic (setting [4]), 1.966 in the assay with gum arabic (setting [5]) and 0.077 in the assay with gum arabic (setting [6]).

B5: VHH 7D2 (VHH)
VHH: QVQLQESGGGLVQPGRSLKVACAAAGFSLRYYGIGWFRQAPGKEREAVSCTSANDGSTYYRDSVRGRFTISRDDGKNTVYLQMNRLKPEDTAVYYCATTDCDATSWGTWINYYGQGTQVTVSS
notes: Hexahistidine-tagged
With B5, the “absorbance at 405 nm” value in the assay with potato lectin (Sigma) was 4; with potato lectin it was 0.072; in the assay on gum arabic (setting [7]), 0.274; in the assay on gum arabic (setting [1]), 0.083; in the assay on gum arabic (setting [2]), 0.136; in the assay with gum arabic (setting [3]) it was 0.347. The results for the “absorbance at 405 nm” value with gum arabic (setting [4]), with gum arabic (setting [5]) and in the assay on gum arabic (setting [6]) were 0.906, 1.427 and 0.074, respectively.

B6: VHH 5D4 (VHH)
VHH: QVQLQESGGGLVQPGGSLRLSCAASGFDMRRFGIGWFRQVAGKEREGVSCSNVHDGTTYYTNDVKGRFTIVRDNTKNMLYLQMNKLRPEDTAVYSCATTDCEATAWGTYRGYFGQGTQVTVSS
notes: Hexahistidine-tagged
With B6, the “absorbance at 405 nm” value in the assay with potato lectin (Sigma) worked out at 4; with potato lectin, 0.072; with gum arabic (setting [7]), 0.530; with gum arabic (setting [1]) it was 0.087; in the assay on gum arabic (setting [2]), 0.134; with gum arabic (setting [3]) it was 0.378. The “absorbance at 405 nm” value is 0.840 in the assay with gum arabic (setting [4]), 1.280 in the assay on gum arabic (setting [5]) and 0.075 in the assay with gum arabic (setting [6]). Moreover, the “binding to native potato leaf surface” value was “binding leaf surface, stomata, glandular trichomes, and leaf hairs” in the assay on potato leaf surface; “clearly binding to trichomes, stomata and cuticle” with potato leaf surface (listed as 5D4).

B7: VHH7A2: plant-binding VHH, listed among SEQ ID NO:1-42 (protein, listed as Lama glama)
VHH: QVQLQESGGGSVHPGGSLTLSCLASGFSLSNYGMGWFRQAPGKEREAVSCTSVPNGHIYYAESVKGRFTIVRDNAGNSVYLQMNSLKPEDAANYFCATTDCEAAHWGTWVNYYGQGTQVTVSS
modifications: 7A2
On to B7, for which the “absorbance at 405 nm” value with gum arabic (setting [1]) is given as 0.088; with gum arabic (setting [2]) it was 0.101; in the assay on gum arabic (setting [3]) it was 0.216; in the assay with gum arabic (setting [4]), 0.677; in the assay on gum arabic (setting [5]), 1.391; in the assay with gum arabic (setting [6]), 0.075.

B8: VHH5F5: plant-binding VHH, listed among SEQ ID NO:1-42 (protein, listed as Lama glama)
VHH: QVQLQESGGGLVQPGGSLRLSCAASGFPLGLYGIGWFRQAPGKEREAVSCDSVDDGSTNYLDSVKGRFTISRDNAKNMVYLQMNSLKPEDTAVYYCATTDCDAKAWGTWTNYRGQGTQVTVSS
modifications: 5F5
Take B8: the “absorbance at 405 nm” value with gum arabic (setting [1]) was 0.093; with gum arabic (setting [2]), 0.100; in the assay on gum arabic (setting [3]) it was 0.191; in the assay with gum arabic (setting [4]), 0.476; in the assay with gum arabic (setting [5]) it was 0.959; in the assay with gum arabic (setting [6]) it was 0.090.

The record behind these values is patent publication US20130217572A1, “SPECIFIC DELIVERY OF AGROCHEMICALS” (VRIJE UNIVERSITEIT BRUSSEL, priority 2010, published 2013).
